The text below walks through data of patent US20090031456A1 (MICHIGAN STATE UNIVERSITY, published 2009).

In this experiment the target is AtMIN7-HA (Arabidopsis thaliana, UniProt F4IXW2 1-1739). The experiment is described as follows: transient co-expression in N. benthamiana leaves, pull-down and immunoblot. Background: Immunoblotting shows a protein as a band on a membrane.
Sequence of AtMIN7-HA (F4IXW2 other isoform, or with tags, fused parts or gaps limits assumed): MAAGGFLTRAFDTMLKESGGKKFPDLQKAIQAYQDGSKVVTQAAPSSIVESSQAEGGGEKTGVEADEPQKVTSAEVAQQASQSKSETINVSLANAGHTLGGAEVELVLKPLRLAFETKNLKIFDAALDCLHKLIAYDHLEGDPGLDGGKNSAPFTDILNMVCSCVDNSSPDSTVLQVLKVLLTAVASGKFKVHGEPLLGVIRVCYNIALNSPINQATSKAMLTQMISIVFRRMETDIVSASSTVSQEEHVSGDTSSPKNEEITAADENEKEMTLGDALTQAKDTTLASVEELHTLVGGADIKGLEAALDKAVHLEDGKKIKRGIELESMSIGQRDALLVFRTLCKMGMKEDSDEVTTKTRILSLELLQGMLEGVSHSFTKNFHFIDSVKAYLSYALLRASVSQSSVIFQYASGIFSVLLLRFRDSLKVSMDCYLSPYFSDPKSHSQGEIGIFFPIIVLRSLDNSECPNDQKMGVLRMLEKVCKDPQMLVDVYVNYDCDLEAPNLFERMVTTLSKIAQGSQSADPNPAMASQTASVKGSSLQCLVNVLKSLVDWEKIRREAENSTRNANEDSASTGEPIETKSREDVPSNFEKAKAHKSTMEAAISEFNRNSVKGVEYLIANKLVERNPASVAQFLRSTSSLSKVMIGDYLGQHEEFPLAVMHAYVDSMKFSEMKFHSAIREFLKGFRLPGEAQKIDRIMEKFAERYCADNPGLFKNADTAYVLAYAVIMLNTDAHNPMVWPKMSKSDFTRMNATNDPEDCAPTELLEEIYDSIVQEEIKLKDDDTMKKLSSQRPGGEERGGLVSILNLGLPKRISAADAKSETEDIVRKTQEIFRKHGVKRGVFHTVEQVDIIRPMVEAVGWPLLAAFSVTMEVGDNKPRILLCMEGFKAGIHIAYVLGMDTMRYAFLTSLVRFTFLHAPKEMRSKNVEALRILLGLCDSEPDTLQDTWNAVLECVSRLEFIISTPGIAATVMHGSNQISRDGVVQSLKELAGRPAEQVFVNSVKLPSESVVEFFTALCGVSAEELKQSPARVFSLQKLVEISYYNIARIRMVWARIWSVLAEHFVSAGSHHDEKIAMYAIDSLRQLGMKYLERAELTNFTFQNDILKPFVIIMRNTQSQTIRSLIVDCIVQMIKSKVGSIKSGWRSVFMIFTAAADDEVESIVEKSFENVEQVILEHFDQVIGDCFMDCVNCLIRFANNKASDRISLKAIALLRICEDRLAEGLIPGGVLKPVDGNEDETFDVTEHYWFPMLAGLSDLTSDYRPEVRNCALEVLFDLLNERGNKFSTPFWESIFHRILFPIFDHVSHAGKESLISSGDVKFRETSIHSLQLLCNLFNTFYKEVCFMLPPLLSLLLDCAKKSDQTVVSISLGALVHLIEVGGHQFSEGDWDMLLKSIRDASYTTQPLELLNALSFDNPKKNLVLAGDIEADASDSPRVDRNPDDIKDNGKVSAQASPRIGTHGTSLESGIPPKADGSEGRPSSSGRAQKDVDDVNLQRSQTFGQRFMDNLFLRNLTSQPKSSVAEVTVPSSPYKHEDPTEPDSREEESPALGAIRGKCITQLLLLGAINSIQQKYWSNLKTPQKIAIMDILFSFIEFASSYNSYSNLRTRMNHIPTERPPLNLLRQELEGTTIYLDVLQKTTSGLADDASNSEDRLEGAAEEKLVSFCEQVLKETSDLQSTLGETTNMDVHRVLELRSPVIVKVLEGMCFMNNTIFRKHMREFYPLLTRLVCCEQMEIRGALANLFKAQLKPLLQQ

B1: 6×His-HopM1 1-300 (other)
chain: MISSRIGGAGGVELSRVNQQHDTVPAQTAHPNAVTAGMNPPLTPDQSGSHATESSSAGAARLNVAARHTQLLQAFKAEHGTAPVSGAPMISSRAALLIGSLLQAEPLPFEVMAEKLSPERYQLKQFQGSDLQQRLEKFAQPGQIPDKAEVGQLIKGFAQSVADQLEHFQLMHDASPATVGQHAKADKATLAVSQTALGEYAGRASKAIGEGLSNSIASLDEHISALDLTLQDAEQGNKESLHADRQALVDAKTTLVGLHADFVKSPEAKRLASVAAHTQLDNVVSDLVTARNTVGGWKGA
notes: also called HopM1-300
On to B1, for which the binding result is given as “binds”.
